The text below walks through data of the Immune Epitope Database (IEDB).

By Kd is commonly meant the constant that tells how readily two partners part at equilibrium.

The target of one assay is HLA-A*32:01. Description: IEDB peptide-MHC binding, purified MHC/competitive/radioactivity; filed as Kd, often an IC50 or EC50 that approximates it; ≥ and ≤ were set here for values at or beyond the usual limits of such assays.
Assay [1] deals with HLA-A*02:01. Description: IEDB peptide-MHC binding, purified MHC/competitive/fluorescence; filed as Kd, often an IC50 or EC50 that approximates it; ≥ and ≤ were set here for values at or beyond the usual limits of such assays.
Another assay has as its target HLA-A*69:01. Description: IEDB peptide-MHC binding, purified MHC/direct/fluorescence; filed as Kd, often an IC50 or EC50 that approximates it; ≥ and ≤ were set here for values at or beyond the usual limits of such assays. The note with it: source organism: Giardia lamblia ATCC 50803.
In assay [2] the target is HLA-A*02:01. The assay is described as above. The note with it: source organism: Giardia lamblia ATCC 50803.
A further assay addresses HLA-B*08:01. Description: IEDB peptide-MHC binding, purified MHC/competitive/radioactivity; filed as Kd, often an IC50 or EC50 that approximates it; ≥ and ≤ were set here for values at or beyond the usual limits of such assays.
The next assay deals with HLA-A*31:01. Description: IEDB peptide-MHC binding, purified MHC/direct/fluorescence; filed as Kd, often an IC50 or EC50 that approximates it; ≥ and ≤ were set here for values at or beyond the usual limits of such assays. The note with it: source organism: Haemophilus influenzae.
The target of a further assay is HLA-A*11:01. Described as above. The note with it: source organism: Haemophilus influenzae.
A further assay deals with HLA-B*58:01. The assay is described as above. The conditions noted are these: source organism: Haemophilus influenzae.
A further assay deals with HLA-B*15:01. Described as above. The note with it: source organism: Haemophilus influenzae.
In a further assay the target is HLA-A*03:01. Described as above. The note with it: source organism: Haemophilus influenzae.
For the next assay, the target named is HLA-A*26:01. The assay is described as follows: IEDB peptide-MHC binding, purified MHC/competitive/radioactivity; filed as Kd, often an IC50 or EC50 that approximates it; ≥ and ≤ were set here for values at or beyond the usual limits of such assays.
The next assay addresses HLA-A*24:02. The description is as above.
Another assay has as its target HLA-A*23:01. The assay is described as above.
The target in another assay is HLA-A*29:02. Described as above.
The target in the next assay is HLA-A*30:02. The assay is described as above.
Another assay concerns the target HLA-A*01:01. Described as above.
Setting [3] is: source organism: Vaccinia virus WR.
Setting [4] is: source organism: Dengue virus 2 Jamaica/1409/1983.
Where [5] appears, read: source organism: SARS coronavirus Tor2.
Where [6] appears, read: source organism: Mammarenavirus lassaense.
The mark [7] stands for this setting: source organism: Dengue virus 3 Martinique/1243/1999.

RTISESNTI: the Kd with HLA-A*32:01 (setting [3]) was found to be 960 nM.

Regarding FTFKRTSGSSV, the Kd with HLA-A*02:01 [1] (source organism: Influenza A virus H3N2) was 930 nM.

Take FKGKTVWFVP: the Kd with HLA-A*32:01 (setting [4]) was no less than 69900 nM.

FLIGVYQQY: the Kd with HLA-A*69:01 and with HLA-A*02:01 [2] was no less than 20000 nM each time.

Turning to LAGAGLAFSL, in the assay with HLA-B*08:01 (source organism: Dengue virus 1 Brazil/97-11/1997), the Kd amounted to 2620 nM.

RPKIKTNDI: in the assay with HLA-B*08:01 (setting [3]), the Kd came to 2.11 nM.

Regarding RIIMLNFSI, the Kd in the assay with HLA-A*32:01 (source organism: Vaccinia virus Copenhagen) is no less than 77800 nM.

On to ALNHLVLSL, for which the Kd with HLA-A*32:01 (setting [3]) was found to be 41.4 nM.

For EIQLKIDKL, the Kd in the assay with HLA-A*02:01 [1] (source organism: Variola virus) turned out to be 3590 nM.

As to KLLRRPFSL, the Kd with HLA-B*08:01 (setting [3]) came to 0.362 nM.

On to ETNDLVTNV, for which the Kd in the assay with HLA-A*02:01 [1] (source organism: Variola virus) worked out at 3240 nM.

Regarding RLFFIDWEY, the Kd in the assay with HLA-A*31:01 is 905 nM; in the assay with HLA-A*11:01, 5270 nM; with HLA-B*58:01, 190 nM; with HLA-B*15:01, 296 nM; in the assay with HLA-A*03:01, 1060 nM.

Regarding IFFASFYYIW, the Kd was determined as 1370 nM in the assay with HLA-A*26:01 (setting [5]); 24.3 nM with HLA-A*24:02 (setting [5]); 0.529 nM with HLA-A*23:01 (setting [5]); 31.6 nM with HLA-A*29:02 (setting [5]); 12100 nM with HLA-A*30:02 (setting [5]); 1270 nM with HLA-A*01:01 (setting [5]).

As for VISNLVLSY, the equilibrium dissociation constant (Kd) with HLA-A*32:01 (setting [3]) amounted to 808 nM.

Consider SLNITTLRAV, for which the Kd in the assay with HLA-A*26:01 (setting [6]) is no less than 69700 nM; with HLA-A*24:02 (setting [6]), no less than 70300 nM; with HLA-A*23:01 (setting [6]), no less than 70000 nM; with HLA-A*29:02 (setting [6]) it was no less than 71400 nM; with HLA-A*30:02 (setting [6]), 1700 nM; with HLA-A*01:01 (setting [6]), no less than 70400 nM.

In the case of HSYGIDLKSY, the Kd with HLA-A*26:01 (setting [5]) is 451 nM; with HLA-A*24:02 (setting [5]), no less than 56400 nM; with HLA-A*23:01 (setting [5]), no less than 70000 nM; in the assay with HLA-A*29:02 (setting [5]), 29.2 nM; with HLA-A*30:02 (setting [5]), 7.12 nM; with HLA-A*01:01 (setting [5]), 80.6 nM.

In the case of SNRAIFVPI, in the assay with HLA-B*08:01 (setting [3]), the Kd came to 127 nM.

On to MTSERTLAV, for which the Kd in the assay with HLA-A*02:01 [1] (source organism: Yersinia pestis Nepal516) is 57.7 nM.

Consider SMTKKFKTI, for which the Kd with HLA-B*08:01 (setting [3]) worked out at 151 nM.

On to LTQKVVIFIL, for which the Kd with HLA-B*08:01 (setting [7]) is 3100 nM.

With LMKERISSE, the Kd with HLA-B*08:01 (setting [3]) is 81.9 nM.

With FYFTNDVSF, the Kd with HLA-A*26:01 (setting [5]) is no less than 22300 nM; in the assay with HLA-A*24:02 (setting [5]) it was 2800 nM; in the assay with HLA-A*23:01 (setting [5]), 1490 nM; with HLA-A*29:02 (setting [5]) it was 413 nM; in the assay with HLA-A*30:02 (setting [5]), no less than 96800 nM; with HLA-A*01:01 (setting [5]), 17100 nM.

VDINLIPLI: the Kd with HLA-A*26:01 (setting [6]) is no less than 77900 nM; in the assay with HLA-A*24:02 (setting [6]), 2950 nM; with HLA-A*23:01 (setting [6]), 1610 nM; with HLA-A*29:02 (setting [6]), no less than 78900 nM; with HLA-A*30:02 (setting [6]), no less than 76900 nM; in the assay with HLA-A*01:01 (setting [6]), 19500 nM.

As for RREEEEAGVL, the Kd with HLA-B*08:01 (setting [4]) amounted to 2160 nM.

On to VYALCTLLHL, for which the dissociation constant (Kd) with HLA-A*26:01 (setting [5]) was 14000 nM; with HLA-A*24:02 (setting [5]), 76.7 nM; with HLA-A*23:01 (setting [5]), 39.8 nM; with HLA-A*29:02 (setting [5]) it was 5570 nM; in the assay with HLA-A*30:02 (setting [5]), no less than 100000 nM; with HLA-A*01:01 (setting [5]), 19900 nM.

On to LAIPPTAGVL, for which, in the assay with HLA-B*08:01 (setting [7]), the Kd amounted to 11900 nM.

On to TSSGDATTAY, for which the Kd with HLA-A*26:01 (setting [5]) is 646 nM; in the assay with HLA-A*24:02 (setting [5]), no less than 70300 nM; with HLA-A*23:01 (setting [5]), no less than 70000 nM; in the assay with HLA-A*29:02 (setting [5]) it was 98.8 nM; with HLA-A*30:02 (setting [5]), 606 nM; in the assay with HLA-A*01:01 (setting [5]) it was 63.8 nM.

Turning to EDMLKVWNRV, the Kd in the assay with HLA-A*32:01 (source organism: Dengue virus 4 Philippines/H241/1956) came out at 19600 nM.

With KLGNLLLLI, the Kd in the assay with HLA-A*32:01 (setting [3]) was 0.716 nM.

As for GFELTSMKY, the Kd with HLA-A*26:01 (setting [5]) was no less than 81500 nM; with HLA-A*24:02 (setting [5]), no less than 77600 nM; with HLA-A*23:01 (setting [5]), no less than 77800 nM; with HLA-A*29:02 (setting [5]), 132 nM; in the assay with HLA-A*30:02 (setting [5]) it was 1840 nM; in the assay with HLA-A*01:01 (setting [5]) it was 1750 nM.
